T1: constitutively active bovine Rab3A (Q81L), full-length, bait in pBTM116 (bovine, UniProt P11023 1-220)
T1 construct: also called active Rab3A (Q81L); not shown: fusion partner encoded by bait vector pBTM116
T1 sequence (looked up): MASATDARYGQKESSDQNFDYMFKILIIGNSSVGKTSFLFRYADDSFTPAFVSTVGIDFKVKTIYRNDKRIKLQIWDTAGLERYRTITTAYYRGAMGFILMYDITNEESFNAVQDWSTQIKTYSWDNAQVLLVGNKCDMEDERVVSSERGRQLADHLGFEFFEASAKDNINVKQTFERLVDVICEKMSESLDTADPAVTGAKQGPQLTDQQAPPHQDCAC

B1: rat Rim1 zinc finger domain (amino acid residues 1-204), prey in pVP16 (other, UniProt Q9JIR4 1-204, looked up)
chain: MSSAVGPRGPRPPTVPPPMQELPDLSHLTEEERNIIMAVMDRQKEEEEKEEAMLKCVVRDMAKPAACKTPRNAESQPHQPPLNIFRCVCVPRKPSSEEGGPERDWRLHQQFESYKEQVRKIGEEARRYQGEHKDDAPTCGICHKTKFADGCGHLCSYCRTKFCARCGGRVSLRSNNEDKVVMWVCNLCRKQQEILTKSGAWFFG
notes: range 1-204; not shown: fusion partner encoded by prey vector pVP16

Tests used:
[1] = biological target: endogenous Rim2 of PC12 cells; assay: cell-based or functional assay
[2] = biological target: T1, constitutively active bovine Rab3A …; assay: yeast two-hybrid, liquid β-galactosidase assay

| Molecule | 8-Br-cAMP (1 mM)-induced, Ca2+-dependent GH secretion [1] [%] | binding result [2] |
| --- | --- | --- |
| wild-type cAMP-GEFII (expressed in PC12 cells from pSRα) (from UniProt Q9EQZ6 1-1011) | 34.9 | – |
| B1 | – | binds |

— patent US20030049661A1 (JCR PHARMACEUTICALS, published 2003)
